Test results taken from patent US20170259217A1 (GOVERNORS OF THE UNIVERSITY OF ALBERTA, published 2017).
Non-standard residues stand in square brackets, D forms with d. amino hexenoic acid = amino hexenoic acid, a vinyl (alkene)-bearing residue; Gly(octyl) = CCCCCCCC[C@H](N)C(=O)O; NMeL = CN[C@@H](CC(C)C)C(=O)O

Biological target: T1, OmpG, bacterial porin (Escherichia coli K12) (Escherichia coli K12, UniProt P76045 22-301, limits assumed)
T1 sequence (looked up): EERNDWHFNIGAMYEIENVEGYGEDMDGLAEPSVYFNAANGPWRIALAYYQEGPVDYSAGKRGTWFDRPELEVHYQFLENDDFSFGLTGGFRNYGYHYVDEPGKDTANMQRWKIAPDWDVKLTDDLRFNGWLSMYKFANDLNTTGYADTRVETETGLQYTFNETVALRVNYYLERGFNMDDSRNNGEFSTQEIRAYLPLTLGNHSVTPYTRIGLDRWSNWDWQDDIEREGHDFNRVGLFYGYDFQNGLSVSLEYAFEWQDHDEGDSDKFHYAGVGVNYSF
Assay: circular dichroism of peptide-stabilized protein

B1: vinyl (alkene mid-) functionalized β-sheet peptide, structure (8): acetyl-(octyl)Gly-Ser-Leu-Ser-amino hexenoic acid-Leu-Asp-(octyl)Gly-Asp-Gly-Leu-NH2 (peptide)
peptide: Ac-[Gly(octyl)]SLS[amino hexenoic acid][NMeL]D[Gly(octyl)]DGL-NH2
notes: Synthetic 11-residue peptide; also called Vinyl-BP1
Does B1 bind?
Result: binds
